In the supplement of paper PMC10567573:

B1: MATN2 (parent)
chain: TDDSYSCHCLKGFTLNPDKKTCRR

Variants of: B1
Assay: protein stability index of a GFP-peptide fusion (GPS, HEK-293T) (PSI 1-6); higher = more stable
Details: c terminus: a fixed tail appended
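Note: lentivirally expressed fusions sorted by FACS into six bins by GFP to DsRed ratio, PSI derived from sequencing read proportions per bin multiplied by bin number.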

Protein stability index of substitutions, site by site:
T21: M 2.57 | S 2.36 | W 1.83 | P 2.36 | Q 2.64 | N 2.32 | Y 2.27 | V 2.41 | L 2.15 | R 2.34
C22: M 1.88 | V 3.13 | E 2.02 | W 1.67 | A 2 | I 2.09 | D 2.69 | R 2.86 | N 2.75 | H 2.18 | T 2.44 | F 2.16 | P 3 | S 2.42 | L 2.93 | K 3.37 | Q 2.27 | Y 1.94 | G 2.27
R23: P 2.56 | N 2.71 | H 1.91 | Q 2.78 | E 2.52 | K 2.76 | I 2.02 | T 2.52 | Y 2.2 | M 1.5 | S 2.29 | F 1.86 | V 2.48 | A 2.41 | G 2.62 | L 2.36 | W 2.26 | D 2.62 | C 2.83
R24: Q 2.61 | P 2.46 | E 3.43 | Y 2.6 | I 1.6 | T 3.15 | S 2.87 | L 2.38 | N 3.25 | D 3.73 | A 2.87 | C 5.18 | M 2.19 | W 1.99 | F 2.5 | G 3.12 | K 2.99 | H 4.06 | V 2.32
